# Patent publication US20230338424A1 (LENTIGEN TECHNOLOGY, published 2023)
# T1: recombinant human CD123-Fc (human, UniProt P26951 19-305, limits assumed)
# T1 construct: Treated as one molecule; also called CD123-Fc peptide (Novoprotein); recombinant IL3R-alpha Fc-tagged; not shown: Fc tag
# T1 sequence (looked up): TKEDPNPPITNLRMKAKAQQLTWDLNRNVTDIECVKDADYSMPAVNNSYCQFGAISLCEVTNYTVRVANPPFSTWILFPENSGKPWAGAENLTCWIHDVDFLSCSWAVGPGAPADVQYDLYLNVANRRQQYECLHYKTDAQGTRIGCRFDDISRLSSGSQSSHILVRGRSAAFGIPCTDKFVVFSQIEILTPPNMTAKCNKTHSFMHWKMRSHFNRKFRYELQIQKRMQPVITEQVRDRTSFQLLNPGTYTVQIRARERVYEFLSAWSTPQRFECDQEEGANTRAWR
# Target: T1, recombinant human CD123-Fc
# Test: flow cytometry, CAR T cells stained with recombinant IL3R-alpha Fc-tagged, anti-Fc AF647
# Method: Half million CAR T cells were washed two times in cold AutoMACS buffer supplemented with 0.5% bovine serum albumin (Miltenyi Biotec, Bergisch Gladbach, Germany) and stained with 2.5 ug/ml CD123-Fc peptide (Novoprotein, Summit, NJ), followed by anti Fc-AF647 conjugate (Jackson ImmunoResearch, West Grove, PA). The 7-Aminoactinomycin D staining (7-AAD, BD Biosciences, San Jose, CA) was added to exclude dead cells. Non-transduced cells (UTD) were used as a negative control. Cells were washed twice with AutoMACS buffer supplemented with 0.5% bovine serum albumin, resuspended in 200 ul staining buffer and acquired by flow cytometry. Flow cytometric analysis was performed on a MACSQuant® 10 Analyzer (Miltenyi Biotec), and data plots were generated using FlowJo software (Ashland, OR).
# Lentiviral vectors encoding the CD123 CAR constructs were used for CAR transduction into human primary T cells at multiplicity of infection (MOI) of 40. CAR surface expression of transduced T cells by flow cytometry using recombinant IL3R-alpha Fc-tagged, followed by staining with anti-Fc Alexa Flour 647.
row,Binder,binding result
1,"CAR LTG2078 CD123 M12306 CD8 BBz (other, Control chimeric antigen receptor on transduced human primary T cells; Leader (residues 1-22) left out; also called EF-1a CD123 CD8 BBz) EVQLVQSGSELKKPGASVKVSCKASGGTFSSYAISWVRQAPGQGLEWMGGIIPIFGTANYAQKFQGRVTITADESTSTAYMELSSLRSEDTAVYYCASTARRGWDTAGPLDYWGQGTLVTVSSGGGGSGGGGSGGGGSDIQMTQSPSSLSASVGDRVTIACRASQTISRYLNWYQQKPGKAPKLLIYAASSLQSGVSSRFSGSGSGTEFTLTISSLQPEDFATYFCQQTYSPPITFGQGTRLEIKAAATTTPAPRPPTPAPTIASQPLSLRPEACRPAAGGAVHTRGLDFACDIYIWAPLAGTCGVLLLSLVITLYCKRGRKKLLYIFKQPFMRPVQTTQEEDGCSCRFPEEEEGGCELRVKFSRSADAPAYQQGQNQLYNELNLGRREEYDVLDKRRGRDPEMGGKPRRKNPQEGLYNELQKDKMAEAYSEIGMKGERRRGKGHDGLYQGLSTATKDTYDALHMQALPPR",binds
2,"CAR D0131 CD123 MB42-D03 CD8 BBz (other, Chimeric antigen receptor on transduced human primary T cells; also called EF-1a-CD123 MB42-D03 CD8 BBz; CAR123 D0131) QVQLVQSGAEVKKPGASVKVSCKASGYTFTSYGISWVRQAPGQGLEWMGWISAYNGNTNYAQKLQGRVTMTTDTSTSTAYMELRSLRSDDTAVYYCARGAYYDFWSSYSWFDPWGQGTLVTVSSGGGGSGGGGSGGGGSSYVLTQPPSVSVAPGKTARITCGGNSIGSKSVQWYQQKPGQAPVLVIYDDSDRPSGIPERFSGSNSGNTATLTISRVEAGDEADYYCQVWDSSSDVVFGGGTKLTVLAAATTTPAPRPPTPAPTIASQPLSLRPEACRPAAGGAVHTRGLDFACDIYIWAPLAGTCGVLLLSLVITLYCKRGRKKLLYIFKQPFMRPVQTTQEEDGCSCRFPEEEEGGCELRVKFSRSADAPAYQQGQNQLYNELNLGRREEYDVLDKRRGRDPEMGGKPRRKNPQEGLYNELQKDKMAEAYSEIGMKGERRRGKGHDGLYQGLSTATKDTYDALHMQALPPR",binds
3,"CAR D0134 CD123 MB44-H01 CD8 BBz (other, Chimeric antigen receptor on transduced human primary T cells; also called EF-1a-CD123 MB44 -H01CD8 BBz) QVQLVQSGAEVKKPGSSVKVSCKASGGTFSSYAISWVRQAPGQGLEWMGGIIPIFGTANYAQRFQGRVTITADESTSTAYMELSSLRSEDTAVYYCARGLGTSYYYYYMDVWGKGTTVTVSSGGGGSGGGGSGGGGSQSVLTQPPSASGSPGQSVTISCTGTSSDVGGYNYVSWYQQHPGKAPKLMIYEVSNRPSGVSNRFSGSKSGNTASLTISGLQAEDEADYYCSSYTSSSTPVVFGGGTKLTVLAAATTTPAPRPPTPAPTIASQPLSLRPEACRPAAGGAVHTRGLDFACDIYIWAPLAGTCGVLLLSLVITLYCKRGRKKLLYIFKQPFMRPVQTTQEEDGCSCRFPEEEEGGCELRVKFSRSADAPAYQQGQNQLYNELNLGRREEYDVLDKRRGRDPEMGGKPRRKNPQEGLYNELQKDKMAEAYSEIGMKGERRRGKGHDGLYQGLSTATKDTYDALHMQALPPR",binds
4,"CAR D0132 CD123 MB42-E02 CD8 BBz (other, Chimeric antigen receptor on transduced human primary T cells; also called EF-1a-CD123 MB42-E02 CD8 BBz) QVQLVQSGAEVKKPGASVKVSCKASGYTFTSYGISWVRQAPGQGLEWMGWISAYNGNTNYAQKLQGRVTMTTDTSTSTAYMELRSLRSDDTAVYYCARGAYYDFWSGYSWFDPWGQGTLVTVSSGGGGSGGGGSGGGGSQSVLTQPPSVSVAPGQTARIPCGGNNIGSKGVHWYQQKSGQAPVMVVYDDSDRPSGIPERFSGSNSGNTATLTISRVEAGDEADYYCQVWDSSGDLVLFGGGTKLTVLAAATTTPAPRPPTPAPTIASQPLSLRPEACRPAAGGAVHTRGLDFACDIYIWAPLAGTCGVLLLSLVITLYCKRGRKKLLYIFKQPFMRPVQTTQEEDGCSCRFPEEEEGGCELRVKFSRSADAPAYQQGQNQLYNELNLGRREEYDVLDKRRGRDPEMGGKPRRKNPQEGLYNELQKDKMAEAYSEIGMKGERRRGKGHDGLYQGLSTATKDTYDALHMQALPPR",binds

# Continued, values first:
row,binding result,Binder
1,binds,"CAR D0130 CD123 MB40-H08 CD8 BBz (other, Chimeric antigen receptor on transduced human primary T cells; also called EF-1a-CD123 MB40-H08 CD8 BBz) QVQLVQSGAEVKKPGSSVKVSCKASGGTFSSYAISWVRQAPGQGLEWMGGIIPIFGTANYAQKFQGRVTITADESTSTAYMELSSLRSEDTAVYYCARNEWYSYYYYYMGVWGKGTTVTVSSGGGGSGGGGSGGGGSQSALTQPASVSGSPGQSITISCTGTSSDVGGYNYVSWYQQHPGKAPKLMIYEVSNRPSGVSNRFSGSKSGNTASLTISGLQAEDEADYYCSSYTSSSTLVVFGGGTKLTVLAAATTTPAPRPPTPAPTIASQPLSLRPEACRPAAGGAVHTRGLDFACDIYIWAPLAGTCGVLLLSLVITLYCKRGRKKLLYIFKQPFMRPVQTTQEEDGCSCRFPEEEEGGCELRVKFSRSADAPAYQQGQNQLYNELNLGRREEYDVLDKRRGRDPEMGGKPRRKNPQEGLYNELQKDKMAEAYSEIGMKGERRRGKGHDGLYQGLSTATKDTYDALHMQALPPR"
2,binds,"CAR D0133 CD123 MB42-E12 CD8 BBz (other, Chimeric antigen receptor on transduced human primary T cells; also called EF-1a-CD123 MB42-E12 CD8 BBz) QVQLVQSGAEVKKPGASVKVSCKASGYTFTSYGISWVRQAPGQGLEWMGWISAYNGNTNYAQKLQGRVTMTTDTSTSTAYMELRSLRSDDTAVYYCARGAYYDFWSSYSWFDPWGQGTLVTVSSGGGGSGGGGSGGGGSSYVLTQPPSVSVAPGKTARITCGGNNIGSKSVHWYQQKPGQAPVLVVYDDSDRPSGIPERFSGSNSGNTATLTISRVEAGDEADYYCQVWDSSSDHVVFGGGTKLTVLAAATTTPAPRPPTPAPTIASQPLSLRPEACRPAAGGAVHTRGLDFACDIYIWAPLAGTCGVLLLSLVITLYCKRGRKKLLYIFKQPFMRPVQTTQEEDGCSCRFPEEEEGGCELRVKFSRSADAPAYQQGQNQLYNELNLGRREEYDVLDKRRGRDPEMGGKPRRKNPQEGLYNELQKDKMAEAYSEIGMKGERRRGKGHDGLYQGLSTATKDTYDALHMQALPPR"
